# Measurements taken from patent US20120135923A1 (IPSEN PHARMA S A S, published 2012).
# Bridge positions count the residues as written; N and C are the ends. Square brackets hold non-standard residues; d marks the D form. Ends that are not written are not given here. 2Nal = N[C@@H](Cc1ccc2ccccc2c1)C(=O)O; d2Nal = N[C@H](Cc1ccc2ccccc2c1)C(=O)O; Bta = N[C@@H](Cc1csc2ccccc12)C(=O)O; Pen = CC(C)(S)[C@H](N)C(=O)O; Nle = CCCC[C@H](N)C(=O)O; βAla = NCCC(=O)O
# B1: Hydantoin(C(O)-(Arg-Gly))-c(Cys-D-Ala-His-D-2-Nal-Arg-Trp-Cys)-NH2 (peptide)
# peptide: RGC[dA]H[d2Nal]RWC-NH2
# modifications: disulfide 3-9; also: N-terminal hydantoin: C(O) bridges Arg1 N-alpha and Gly2 N, bridge at N via C(O), other end not in the chain
# B2: Hydantoin(C(O)-(Nle-Gly))-c(Cys-D-Ala-His-D-Phe-Arg-Trp-Pen)-NH2 (peptide)
# peptide: [Nle]GC[dA]H[dF]RW[Pen]-NH2
# modifications: disulfide 3-9; also: N-terminal hydantoin: C(O) bridges X1 N-terminal N and G2 backbone N, bridge at N via C(O), other end not in the chain
# B3: Ac-c(Cys-Glu-His-D-2-Nal-Arg-2-Nal-Ala-Cys)-Pro-Pro-Arg-Asp-β-[…]NH2 (peptide)
# peptide: Ac-CEH[d2Nal]R[2Nal]ACPPRD[βAla]RRRRRQRRR-NH2
# modifications: disulfide 1-8
# SMILES: CC(=O)N[C@H]1CSSC[C@@H](C(=O)N2CCC[C@H]2C(=O)N2CCC[C@H]2C(=O)N[C@@H](CCCNC(=N)N)C(=O)N[C@@H](CC(=O)O)C(=O)NCCC(=O)N[C@@H](CCCNC(=N)N)C(=O)N[C@@H](CCCNC(=N)N)C(=O)N[C@@H](CCCNC(=N)N)C(=O)N[C@@H](CCCNC(=N)N)C(=O)N[C@@H](CCCNC(=N)N)C(=O)N[C@@H](CCC(N)=O)C(=O)N[C@@H](CCCNC(=N)N)C(=O)N[C@@H](CCCNC(=N)N)C(=O)N[C@@H](CCCNC(=N)N)C(N)=O)NC(=O)[C@H](C)NC(=O)[C@H](Cc2ccc3ccccc3c2)NC(=O)[C@H](CCCNC(=N)N)NC(=O)[C@@H](Cc2ccc3ccccc3c2)NC(=O)[C@H](Cc2c[nH]cn2)NC(=O)[C@H](CCC(=O)O)NC1=O
# B4: Hydantoin(C(O)-(Nle-Gly))-c(Cys-Glu-His-D-Phe-Arg-Trp-Cys)-NH2 (peptide)
# peptide: [Nle]GCEH[dF]RWC-NH2
# modifications: disulfide 3-9; also: N-terminal hydantoin: C(O) bridges X1 N-terminal N and G2 backbone N, bridge at N via C(O), other end not in the chain
# B5: c[Hydantoin(C(O)-(Asp-His))-D-2-Nal-Arg-Trp-Lys]-NH2 (peptide)
# peptide: DH[d2Nal]RWK-NH2
# modifications: lactam 1-6; also: hydantoin ring: N-terminal N of Asp1 and backbone N of His2 bridged by one C(O), bridge at N via C(O), other end not in the chain
# Target: T1, human melanocortin receptor subtype 4 (hMC4-R) (human, UniProt P32245 1-332)
# T1 construct: whole, on cells; membranes of CHO-K1 cells
# Assay: [125I]-NDP-α-MSH competition, membranes
# Procedure: (§1) Cellular membranes used for the in vitro receptor binding assays were obtained from transgenic CHO-K1 cells stably expressing hMC-R receptor subtypes 1, 3, 4 or 5. […] The pellets were resuspended in the same buffer and centrifuged at 50,000 g for 10 minutes at approximately 4° C. The washed pellets containing the cellular membranes were stored at approximately −80° C.
# (§2) Competitive inhibition of [¹²⁵I](Tyr²)-(Nle⁴-D-Phe⁷)α-MSH ([¹²⁵I]-NDP-α-MSH, Amersham Biosciences®) binding was carried out in polypropylene 96 well plates. Cell membranes (1-10 μg protein/well) prepared as described above were incubated in 50 mM Tris-HCl at pH 7.4 containing 0.2% bovine serum albumin (BSA), 5 mM MgCl₂, 1 mM CaCl₂ and 0.1 mg/mL bacitracin, with increasing concentrations of the test compound and 0.1-0.3 nM […] for approximately 90-120 minutes at approximately 37° C. Bound [¹²⁵I]-NDP-α-MSH ligand was separated from free [¹²⁵I]-NDP-α-MSH by filtration through GF/C glass fiber filter plates (Unifilter®; Packard) presoaked with 0.1% (w/v) polyethylenimine (PEI), using a Packard Filtermate® harvester. Filters were washed three times with 50 mM Tris-HCl at pH 7.4 at a temperature of approximately 0-4° C. and then assayed for radioactivity using a Packard Topcount® scintillation counter. Binding data were analyzed by computer-assisted non-linear regression analysis (XL fit; IDBS).
# T1 sequence (P32245 whole entry): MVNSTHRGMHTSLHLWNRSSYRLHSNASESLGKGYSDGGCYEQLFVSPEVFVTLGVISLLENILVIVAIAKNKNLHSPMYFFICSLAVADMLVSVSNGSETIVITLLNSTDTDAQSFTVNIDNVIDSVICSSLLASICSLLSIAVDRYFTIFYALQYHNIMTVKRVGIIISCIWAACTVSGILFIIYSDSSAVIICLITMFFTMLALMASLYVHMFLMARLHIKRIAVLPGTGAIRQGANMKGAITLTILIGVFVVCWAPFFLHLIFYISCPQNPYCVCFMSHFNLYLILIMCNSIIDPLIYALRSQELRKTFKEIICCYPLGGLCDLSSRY
row,Binder,Ki [nM]
1,B1,0.195
2,Ac-CEH[d2Nal]R[2Nal]ACPPKD[βAla]GRKRRRQRRR-NH2 (disulfide 1-8),0.446
3,B2,3.53
4,RGCEH[dF]RWC-NH2 (disulfide 3-9; also: hydantoin ring from C(O) with Arg1-Gly2) [Hydantoin(C(O)-(Arg-Gly))-c(Cys-Glu-His-D-Phe-Arg-Trp-Cys)-NH2],2.44
5,GRCEH[dF]RWC-NH2 (disulfide 3-9; also: hydantoin ring from C(O) with Gly1-Arg2) [Hydantoin(C(O)-(Gly-Arg))-c(Cys-Glu-His-D-Phe-Arg-Trp-Cys)-NH2],2.44
6,B3,0.0737
7,Ac-CEH[d2Nal]R[Bta]ACPPKD[βAla]RRKRRQRRR-NH2 (disulfide 1-8) [Ac-c(Cys-Glu-His-D-2-Nal-Arg-Bal-Ala-Cys)-Pro-Pro-Lys-Asp-β-[…]NH2],0.442

# Target: T2, human melanocortin receptor subtype 1 (hMC1-R) (human, UniProt Q01726 1-317)
# T2 construct: whole, on cells; membranes of CHO-K1 cells
# Assay: [125I]-NDP-α-MSH competition, membranes
# Procedure: as §1, §2
# T2 sequence (Q01726 whole entry): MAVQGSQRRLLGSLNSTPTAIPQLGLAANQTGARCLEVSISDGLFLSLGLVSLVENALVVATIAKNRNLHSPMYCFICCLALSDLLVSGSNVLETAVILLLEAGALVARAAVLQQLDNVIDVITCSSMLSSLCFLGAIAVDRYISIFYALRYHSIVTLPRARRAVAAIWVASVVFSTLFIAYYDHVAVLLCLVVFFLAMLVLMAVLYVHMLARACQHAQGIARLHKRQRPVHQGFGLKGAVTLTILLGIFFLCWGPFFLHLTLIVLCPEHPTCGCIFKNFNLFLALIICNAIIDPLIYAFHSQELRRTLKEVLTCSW
row,Binder,Ki [nM]
1,B1,11.9
2,Ac-CEH[d2Nal]R[2Nal]ACPPKD[βAla]GRKRRRQRRR-NH2 (disulfide 1-8),5.66
3,B2,12.9
4,B4,14.3
5,RGCEH[dF]RWC-NH2 (disulfide 3-9; also: hydantoin ring from C(O) with Arg1-Gly2) [Hydantoin(C(O)-(Arg-Gly))-c(Cys-Glu-His-D-Phe-Arg-Trp-Cys)-NH2],8.59
6,GRCEH[dF]RWC-NH2 (disulfide 3-9; also: hydantoin ring from C(O) with Gly1-Arg2) [Hydantoin(C(O)-(Gly-Arg))-c(Cys-Glu-His-D-Phe-Arg-Trp-Cys)-NH2],5.68
7,GGCEH[dF]RWC-NH2 (disulfide 3-9; also: hydantoin ring from C(O) with Gly1-Gly2) [Hydantoin(C(O)-(Gly-Gly))-c(Cys-Glu-His-D-Phe-Arg-Trp-Cys)-NH2],11.9
8,Ac-CEH[d2Nal]R[2Nal]ACPPKD[βAla]RRRRRQRRR-NH2 (disulfide 1-8),2.48
9,B3,2.63
10,Ac-CEH[d2Nal]R[Bta]ACPPKD[βAla]RRKRRQRRR-NH2 (disulfide 1-8) [Ac-c(Cys-Glu-His-D-2-Nal-Arg-Bal-Ala-Cys)-Pro-Pro-Lys-Asp-β-[…]NH2],3
11,B5,200

# Target: T3, human melanocortin receptor subtype 5 (hMC5-R) (human, UniProt P33032 1-325)
# T3 construct: whole, on cells; membranes of CHO-K1 cells
# Assay: [125I]-NDP-α-MSH competition, membranes
# Procedure: as §1, §2
# T3 sequence (P33032 whole entry): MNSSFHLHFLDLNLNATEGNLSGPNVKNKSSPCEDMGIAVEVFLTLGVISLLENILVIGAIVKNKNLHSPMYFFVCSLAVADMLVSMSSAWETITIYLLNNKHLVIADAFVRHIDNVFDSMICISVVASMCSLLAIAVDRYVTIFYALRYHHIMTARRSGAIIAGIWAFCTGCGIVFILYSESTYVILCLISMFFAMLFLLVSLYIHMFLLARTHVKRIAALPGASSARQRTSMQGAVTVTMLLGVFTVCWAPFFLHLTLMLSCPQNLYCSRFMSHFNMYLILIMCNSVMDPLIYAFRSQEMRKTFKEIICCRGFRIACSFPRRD
row,Binder,Ki [nM]
1,Ac-CEH[d2Nal]R[2Nal]ACPPKD[βAla]GRKRRRQRRR-NH2 (disulfide 1-8),6.23
2,B2,27.1
3,B4,67.8
4,RGCEH[dF]RWC-NH2 (disulfide 3-9; also: hydantoin ring from C(O) with Arg1-Gly2) [Hydantoin(C(O)-(Arg-Gly))-c(Cys-Glu-His-D-Phe-Arg-Trp-Cys)-NH2],7760
5,GRCEH[dF]RWC-NH2 (disulfide 3-9; also: hydantoin ring from C(O) with Gly1-Arg2) [Hydantoin(C(O)-(Gly-Arg))-c(Cys-Glu-His-D-Phe-Arg-Trp-Cys)-NH2],4220
6,GGCEH[dF]RWC-NH2 (disulfide 3-9; also: hydantoin ring from C(O) with Gly1-Gly2) [Hydantoin(C(O)-(Gly-Gly))-c(Cys-Glu-His-D-Phe-Arg-Trp-Cys)-NH2],73.9
7,Ac-CEH[d2Nal]R[2Nal]ACPPKD[βAla]RRRRRQRRR-NH2 (disulfide 1-8),9.17
8,B3,11.6
9,Ac-CEH[d2Nal]R[Bta]ACPPKD[βAla]RRKRRQRRR-NH2 (disulfide 1-8) [Ac-c(Cys-Glu-His-D-2-Nal-Arg-Bal-Ala-Cys)-Pro-Pro-Lys-Asp-β-[…]NH2],15.5
